Test results from article PMC5737387 (Nucleic Acids Research, 2017).
Each block holds one molecule with its values, some of them ahead of it.

Legend:
[1] = molecular target: p44ct(368–534) (Chaetomium thermophilum); assay: ITC
full length p44hs = full length p44hs (Homo sapiens, UniProt Q13888 1-395); assay: co-IP
Sequence of full length p44hs (Q13888 whole entry): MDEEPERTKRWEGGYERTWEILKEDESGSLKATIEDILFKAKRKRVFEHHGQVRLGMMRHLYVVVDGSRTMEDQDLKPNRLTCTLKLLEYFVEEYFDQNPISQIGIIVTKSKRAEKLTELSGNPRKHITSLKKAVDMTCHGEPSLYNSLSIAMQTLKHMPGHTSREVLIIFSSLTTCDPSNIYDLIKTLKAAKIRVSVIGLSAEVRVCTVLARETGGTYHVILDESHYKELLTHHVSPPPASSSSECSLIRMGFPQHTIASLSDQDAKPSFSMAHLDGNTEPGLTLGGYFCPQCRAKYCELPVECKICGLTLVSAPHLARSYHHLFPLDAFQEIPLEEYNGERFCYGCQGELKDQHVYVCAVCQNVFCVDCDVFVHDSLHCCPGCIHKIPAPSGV

Kd [1]: 11 nM
dH [1]: -25 kcal/mol
stoichiometry N [1]: 0.71
Molecule: p34ct(1–277) (domain or fragment)

binding result (full length p44hs): binds
B1: full length p34hs (natural protein)
chain: MVSDEDELNLLVIVVDANPIWWGKQALKESQFTLSKCIDAVMVLGNSHLFMNRSNKLAVIASHIQESRFLYPGKNGRLGDFFGDPGNPPEFNPSGSKDGKYELLTSANEVIVEEIKDLMTKSDIKGQHTETLLAGSLAKALCYIHRMNKEVKDNQEMKSRILVIKAAEDSALQYMNFMNVIFAAQKQNILIDACVLDSDSGLLQQACDITGGLYLKVPQMPSLLQYLLWVFLPDQDQRSQLILPPPVHVDYRAACFCHRNLIEIGYVCSVCLSIFCNFSPICTTCETAFKISLPPVLKAKKKKLKVSA
